Laboratory results from US20190241648A1 (STATEN BIOTECHNOLOGY B V, published 2019).
Ends that are not written are not given here.

Legend:
Assay in all cases: peptide microarray
[1] = molecular target: T1, ApoC3 peptide … R40P (human, not fully specified (bridges); also: cyclic constrained)
T1 peptide: APGWVTDGFSSLK
Excerpt: (§1) Amino acids G41 and G46 were highly conserved; substitution of G41 by E, N or Q caused a decrease of spot intensities by ˜70% or higher, whereas exchange of G46 by N was hardly tolerated and resulting in 90% reduced spot intensities. […] Amino acid positions V43, D45 and K51 were also well conserved with a clear preference for the wild type amino acids and a certain tolerance particularly for conservative exchanges by Y, F and I (V43), A, E and K (D45) as well as by R (K51). […] Replacement of V43 by Y, however, increased spot intensity by two fold. Amino acid positions W42 and 48S were poorly conserved or even variable; both positions were susceptible for only a number of amino acid exchanges, and exchange by F, S and T (W42) or by E (S48) even caused a two- to three-fold increase of spot intensity. Amino acid positions A39 and R40 were variable.
(§2) Pre: staining of one of the ApoC3 peptide microarrays was done with the secondary antibody goat anti-human IgG (Fe) DyLight680 (1:5000) and control antibody mouse monoclonal anti-HA (12CA5) DyLight800 (1:2000) to investigate background interactions of the secondary antibody with the antigen-derived peptides that could interfere with the main assays. Subsequent incubation of other ApoC3 peptide microarrays with antibody samples was followed by staining with secondary and control antibodies as well as read-out at scanning intensities of 7/7 (red/green). The additional HA peptides framing the peptide arrays were stained as internal quality control to confirm the assay quality and the peptide microarray integrity.

[2] = molecular target: T2, ApoC3 peptide … F47L (human, not fully specified (bridges); also: cyclic constrained)
T2 peptide: ARGWVTDGLSSLK
Excerpt: as §1, §2

[3] = molecular target: T3, ApoC3 peptide … R40G (human, not fully specified (bridges); also: cyclic constrained)
T3 peptide: AGGWVTDGFSSLK
Excerpt: as §1, §2

[4] = molecular target: T4, ApoC3 peptide … L50W (human, not fully specified (bridges); also: cyclic constrained)
T4 peptide: ARGWVTDGFSSWK
Excerpt: as §1, §2

[5] = molecular target: T5, ApoC3 peptide … A39H (human, cyclic constrained)
T5 peptide: HRGWVTDGFSSLK
Excerpt: as §1, §2

[6] = molecular target: T6, ApoC3 peptide … F47M (human, not fully specified (bridges); also: cyclic constrained)
T6 peptide: ARGWVTDGMSSLK
Excerpt: as §1, §2

[7] = molecular target: ApoC3 peptide … S48H (human, cyclic constrained)
Excerpt: as §1, §2

[8] = molecular target: T7, ApoC3 peptide … S49H (human, cyclic constrained)
T7 peptide: ARGWVTDGFSHLK
Excerpt: as §1, §2

[9] = molecular target: T8, ApoC3 peptide … G46Q (human, not fully specified (bridges); also: cyclic constrained)
T8 peptide: ARGWVTDQFSSLK
Excerpt: as §1, §2

[10] = molecular target: T9, ApoC3 peptide … T44P (human, not fully specified (bridges); also: cyclic constrained)
T9 peptide: ARGWVPDGFSSLK
Excerpt: as §1, §2

[11] = molecular target: T10, ApoC3 peptide … V43P (human, not fully specified (bridges); also: cyclic constrained)
T10 peptide: ARGWPTDGFSSLK
Excerpt: as §1, §2

[12] = molecular target: T11, ApoC3 peptide … F47E (human, not fully specified (bridges); also: cyclic constrained)
T11 peptide: ARGWVTDGESSLK
Excerpt: as §1, §2

[13] = molecular target: T12, ApoC3 peptide … G46L (human, not fully specified (bridges); also: cyclic constrained)
T12 peptide: ARGWVTDLFSSLK
Excerpt: as §1, §2

[14] = molecular target: T13, ApoC3 peptide … G41Y (human, also: cyclic constrained)
T13 peptide: ARYWVTDGFSSLK
Excerpt: as §1, §2

[15] = molecular target: T14, ApoC3 peptide … G41E (human, also: cyclic constrained)
T14 peptide: AREWVTDGFSSLK
Excerpt: as §1, §2

[16] = molecular target: T15, ApoC3 peptide … A39D (human, cyclic constrained)
T15 peptide: DRGWVTDGFSSLK
Excerpt: as §1, §2

[17] = molecular target: ApoC3 peptide … S48Q (human, cyclic constrained)
Excerpt: as §1, §2

[18] = molecular target: T16, ApoC3 peptide … K51R (human, not fully specified; cyclic constrained)
T16 peptide: ARGWVTDGFSSLR
Excerpt: as §1, §2

[19] = molecular target: T17, ApoC3 peptide … K51H (human, not fully specified; cyclic constrained)
T17 peptide: ARGWVTDGFSSLH
Excerpt: as §1, §2

[20] = molecular target: T18, ApoC3 peptide … S48G (human, not fully specified; cyclic constrained)
T18 peptide: ARGWVTDGFGSLK
Excerpt: as §1, §2

[21] = molecular target: T19, ApoC3 peptide … F47Y (human, also: cyclic constrained)
T19 peptide: ARGWVTDGYSSLK
Excerpt: as §1, §2

[22] = molecular target: T20, ApoC3 peptide … K51E (human, thioether (positions not given here); also: cyclic constrained)
T20 peptide: ARGWVTDGFSSLE
Excerpt: as §1, §2

[23] = molecular target: T21, ApoC3 peptide … G41A (human, also: cyclic constrained)
T21 peptide: ARAWVTDGFSSLK
Excerpt: as §1, §2

[24] = molecular target: T22, ApoC3 peptide … A39Q (human, not fully specified (bridges); also: cyclic constrained)
T22 peptide: QRGWVTDGFSSLK
Excerpt: as §1, §2

[25] = molecular target: T23, ApoC3 peptide … V43C (human, not fully specified; cyclic constrained)
T23 peptide: ARGWCTDGFSSLK
Excerpt: as §1, §2

[26] = molecular target: T24, ApoC3 peptide … F47T (human, also: cyclic constrained)
T24 peptide: ARGWVTDGTSSLK
Excerpt: as §1, §2

[27] = molecular target: ApoC3 peptide … S48M (human, cyclic constrained)
Excerpt: as §1, §2

[28] = molecular target: T25, ApoC3 peptide … F47S (human, also: cyclic constrained)
T25 peptide: ARGWVTDGSSSLK
Excerpt: as §1, §2

[29] = molecular target: T26, ApoC3 peptide … S48A (human, thioether (positions not given here); also: cyclic constrained)
T26 peptide: ARGWVTDGFASLK
Excerpt: as §1, §2

[30] = molecular target: T27, ApoC3 peptide … T44L (human, not fully specified (bridges); also: cyclic constrained)
T27 peptide: ARGWVLDGFSSLK
Excerpt: as §1, §2

[31] = molecular target: T28, ApoC3 peptide … S49R (human, not fully specified (bridges); also: cyclic constrained)
T28 peptide: ARGWVTDGFSRLK
Excerpt: as §1, §2

B1: anti-ApoC3 antibody 14C7 (antibody, V domains shown)
VH: QVQVQESGPGLVKPSQTLSLTCTVSGGSITTNSYYWSWIRQPPGKGLEWMGAIDYSGDTYYSPSLKSRTSISRDTSKNQFTLQLTSVTPEDTAVYYCVSRIPTGEYWGQGTQVTVSS
VL: QTVVTQEPSLSVSPGGTVTLTCGLNSGSVTSSNYPDWYQQTPGQAPRLLIYNTNSRHSGVPSRFSGSISGNKAALTITGAQPEDEADYYCALYMGSDSVVFGGGTHLTVL
notes: it was detected with goat anti-human IgG (Fc); also called mAb 14C7; llama antibody 14C7
% of binding to wild-type peptide [1]: 52.7% | % of binding to wild-type peptide [2]: 4.56% | % of binding to wild-type peptide [3]: 62.9% | % of binding to wild-type peptide [4]: 17.7% | % of binding to wild-type peptide [5]: 69.4% | % of binding to wild-type peptide [6]: 0% | % of binding to wild-type peptide [7]: 11.5% | % of binding to wild-type peptide [8]: 0.56% | % of binding to wild-type peptide [9]: 0% | % of binding to wild-type peptide [10]: 0% | % of binding to wild-type peptide [11]: 1.86% | % of binding to wild-type peptide [12]: 0% | % of binding to wild-type peptide [13]: 0% | % of binding to wild-type peptide [14]: 6.27% | % of binding to wild-type peptide [15]: 28.1% | % of binding to wild-type peptide [16]: 50.7% | % of binding to wild-type peptide [17]: 46.8% | % of binding to wild-type peptide [18]: 57.4% | % of binding to wild-type peptide [19]: 2.43% | % of binding to wild-type peptide [20]: 3.7% | % of binding to wild-type peptide [21]: 67.7% | % of binding to wild-type peptide [22]: 4.71% | % of binding to wild-type peptide [23]: 7.01% | % of binding to wild-type peptide [24]: 104% | % of binding to wild-type peptide [25]: 0.12% | % of binding to wild-type peptide [26]: 0% | % of binding to wild-type peptide [27]: 121% | % of binding to wild-type peptide [28]: 0% | % of binding to wild-type peptide [29]: 75.5% | % of binding to wild-type peptide [30]: 0.5% | % of binding to wild-type peptide [31]: 0.74%
